Measurements published in PMC10491584, “Structural convergence endows nuclear transport receptor Kap114p with a transcriptional repressor function toward TATA-binding protein” (Nature Communications, 2023).

T1: Kap114p wild type (S. cerevisiae, UniProt P53067 1-1004)
T1 construct: Kap114p (karyopherin-β), S. cerevisiae, full length, amplified from total genomic DNA; GST tag followed by a PreScission site (modified pGEX6p1); PreScission protease added during dialysis; also called Kap114p WT; GST-Kap114p (plasmid pGEX-6P-1-Kap114); source: E. coli Rosetta, purified (GST resin, MonoQ, Superdex 200)
T1 sequence (looked up): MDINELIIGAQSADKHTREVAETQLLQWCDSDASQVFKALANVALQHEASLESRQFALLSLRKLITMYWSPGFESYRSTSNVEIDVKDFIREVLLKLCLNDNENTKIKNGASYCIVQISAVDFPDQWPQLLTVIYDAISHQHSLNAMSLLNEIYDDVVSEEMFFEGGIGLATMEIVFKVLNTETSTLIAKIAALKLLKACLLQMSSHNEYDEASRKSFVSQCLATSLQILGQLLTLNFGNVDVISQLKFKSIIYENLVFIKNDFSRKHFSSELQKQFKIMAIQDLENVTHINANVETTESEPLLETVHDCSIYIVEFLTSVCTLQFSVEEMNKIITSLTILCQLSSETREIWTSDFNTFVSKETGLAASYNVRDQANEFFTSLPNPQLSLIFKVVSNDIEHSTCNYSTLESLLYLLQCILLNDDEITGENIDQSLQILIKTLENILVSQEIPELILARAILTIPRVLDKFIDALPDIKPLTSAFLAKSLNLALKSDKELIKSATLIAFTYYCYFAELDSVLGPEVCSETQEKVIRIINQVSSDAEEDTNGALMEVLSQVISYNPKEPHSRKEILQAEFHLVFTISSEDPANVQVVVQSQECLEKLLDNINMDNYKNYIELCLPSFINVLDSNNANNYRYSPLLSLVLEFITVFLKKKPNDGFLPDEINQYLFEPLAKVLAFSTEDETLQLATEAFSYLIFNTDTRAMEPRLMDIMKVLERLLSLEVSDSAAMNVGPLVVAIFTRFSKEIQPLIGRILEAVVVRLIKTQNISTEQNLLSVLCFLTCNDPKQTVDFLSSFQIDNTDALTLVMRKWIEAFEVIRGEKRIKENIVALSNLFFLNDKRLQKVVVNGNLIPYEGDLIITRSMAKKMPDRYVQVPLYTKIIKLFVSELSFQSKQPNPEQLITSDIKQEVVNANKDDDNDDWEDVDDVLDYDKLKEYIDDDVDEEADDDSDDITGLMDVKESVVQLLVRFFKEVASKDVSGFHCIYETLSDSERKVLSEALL

T2: Kap114p (Y370A) (S. cerevisiae, UniProt P53067 1-1004, Y370A)
T2 construct: Kap114p, S. cerevisiae, full length with Y370A; also called GST-Kap114p (Y370A); source: E. coli Rosetta, purified (GST resin, MonoQ, Superdex 200)
T2 sequence (looked up): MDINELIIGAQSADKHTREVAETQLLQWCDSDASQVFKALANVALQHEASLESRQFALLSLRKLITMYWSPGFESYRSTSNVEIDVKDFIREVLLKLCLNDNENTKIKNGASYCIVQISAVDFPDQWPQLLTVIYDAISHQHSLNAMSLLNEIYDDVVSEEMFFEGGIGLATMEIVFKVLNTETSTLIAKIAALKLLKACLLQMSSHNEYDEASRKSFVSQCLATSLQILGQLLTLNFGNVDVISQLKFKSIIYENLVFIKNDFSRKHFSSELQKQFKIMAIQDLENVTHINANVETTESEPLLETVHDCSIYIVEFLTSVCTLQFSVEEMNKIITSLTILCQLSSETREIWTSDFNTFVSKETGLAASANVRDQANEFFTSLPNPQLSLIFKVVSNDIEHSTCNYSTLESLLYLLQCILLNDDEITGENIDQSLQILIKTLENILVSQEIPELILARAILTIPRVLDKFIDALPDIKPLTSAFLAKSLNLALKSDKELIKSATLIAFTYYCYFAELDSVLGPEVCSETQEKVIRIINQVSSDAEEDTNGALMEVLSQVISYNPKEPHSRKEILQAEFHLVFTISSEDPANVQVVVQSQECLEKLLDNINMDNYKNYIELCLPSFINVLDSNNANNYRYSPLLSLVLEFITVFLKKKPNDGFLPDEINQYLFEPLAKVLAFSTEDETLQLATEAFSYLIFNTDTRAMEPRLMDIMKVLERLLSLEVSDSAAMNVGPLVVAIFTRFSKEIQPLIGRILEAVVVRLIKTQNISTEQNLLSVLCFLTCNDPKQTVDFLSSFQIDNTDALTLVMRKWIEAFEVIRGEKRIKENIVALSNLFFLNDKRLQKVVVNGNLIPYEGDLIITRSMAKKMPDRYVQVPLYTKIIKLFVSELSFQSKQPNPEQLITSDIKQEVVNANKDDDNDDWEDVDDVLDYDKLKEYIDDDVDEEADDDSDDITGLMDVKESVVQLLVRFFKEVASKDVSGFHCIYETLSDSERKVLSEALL


Assays:
Kap114p wild type = biological target: T1, Kap114p wild type; test: ITC; MicroCal iTC200, 25 °C, 20 mM HEPES pH 7.4, 150 mM NaCl; high concentration: 50 µM wild type or mutant Kap114p in the sample cell, 500 µM wild type or mutant yTBPC in the syringe; triplicate; conditions: both partners purified
Kap114p (Y370A) = biological target: T2, Kap114p (Y370A); test: ITC; MicroCal iTC200, 25 °C, 20 mM HEPES pH 7.4, 150 mM NaCl; low concentration: 25 µM wild type or mutant Kap114p in the sample cell, 250 µM wild type or mutant yTBPC in the syringe; triplicate; conditions: both partners purified

Kd (Kap114p wild type) [nM] | Kd (Kap114p (Y370A)) [nM] | Binder
238 |  | yTBP^C (K145A) (domain or fragment, S. cerevisiae, UniProt P13393 61-240, looked up, also called yTBP(K145A); pET28a-Spt15 (61-240) (K145A); source: E. coli Rosetta, purified (Ni-NTA, HiTrap SP, Superdex 75); not shown: His6, N-terminal, cleaved) SGIVPTLQNIVATVTLGCRLDLKTVALHARNAEYNPKRFAAVIMRIREPKTTALIFASGKMVVTGAKSEDDSKLASRKYARIIQAIGFAAKFTDFKIQNIVGSCDVKFPIRLEGLAFSHGTFSSYEPELFPGLIYRMVKPKIVLLIFVSGKIVLTGAKQREEIYQAFEAIYPVLSEFRKM
28.9 | 938 | yTBP^C (N91A) (domain or fragment, S. cerevisiae, UniProt P13393 61-240, looked up, also called yTBP(N91A); His-yTBP (61-240) (N91A); source: E. coli Rosetta, purified (Ni-NTA, HiTrap SP, Superdex 75); not shown: His6, N-terminal, cleaved) SGIVPTLQNIVATVTLGCRLDLKTVALHARAAEYNPKRFAAVIMRIREPKTTALIFASGKMVVTGAKSEDDSKLASRKYARIIQKIGFAAKFTDFKIQNIVGSCDVKFPIRLEGLAFSHGTFSSYEPELFPGLIYRMVKPKIVLLIFVSGKIVLTGAKQREEIYQAFEAIYPVLSEFRKM
